Laboratory results: the Immune Epitope Database (IEDB)

Legend:
HLA-B*40:02 = test: IEDB peptide-MHC binding, purified MHC/competitive/radioactivity; filed as Kd, often an IC50 or EC50 that approximates it; ≥ and ≤ were set here for values at or beyond the usual limits of such assays
HLA-B*44:03 = test: as above
HLA-B*18:01 = test: as above
HLA-B*40:01 [1] = test: as above
HLA-B*45:01 = test: as above
HLA-B*44:02 [2] = test: as above
HLA-B*07:02 [3] = test: IEDB peptide-MHC binding, purified MHC/direct/fluorescence; filed as Kd, often an IC50 or EC50 that approximates it; ≥ and ≤ were set here for values at or beyond the usual limits of such assays
HLA-B*08:01 = test: as above
HLA-A*02:01 [4] = test: as above
HLA-B*27:05 = test: as above
HLA-A*01:01 = test: as above
HLA-B*58:01 = test: as above
HLA-A*69:01 = test: as above
HLA-A*26:01 [5] = test: as above
HLA-A*31:01 = test: as above
HLA-B*40:01 [6] = test: as above
HLA-A*03:01 [7] = test: as above
HLA-B*15:01 [8] = test: as above
HLA-A*11:01 [9] = test: as above
HLA-B*44:02 [10] = test: as above; conditions: source organism: Salmonella enterica
HLA-A*11:01 [11] = test: IEDB peptide-MHC binding, purified MHC/competitive/fluorescence; ≥ and ≤ were set here for values at or beyond the usual limits of such assays
HLA-B*07:02 [12] = test: IEDB peptide-MHC binding, purified MHC/competitive/radioactivity; filed as Kd, often an IC50 or EC50 that approximates it; ≥ and ≤ were set here for values at or beyond the usual limits of such assays
HLA-B*35:01 = test: as above
HLA-B*51:01 = test: as above
HLA-B*53:01 = test: as above; conditions: source organism: Dengue virus 1 Brazil/97-11/1997
HLA-A*24:02 = test: IEDB peptide-MHC binding, purified MHC/competitive/fluorescence; ≥ and ≤ were set here for values at or beyond the usual limits of such assays; conditions: source organism: Zaire ebolavirus
HLA-A*02:01 [13] = test: as above; conditions: source organism: Zaire ebolavirus
HLA-B*39:01 = test: IEDB peptide-MHC binding, purified MHC/competitive/fluorescence; filed as Kd, often an IC50 or EC50 that approximates it; ≥ and ≤ were set here for values at or beyond the usual limits of such assays; conditions: source organism: Pseudomonas aeruginosa PAO1
HLA-A*26:01 [14] = test: as above; conditions: source organism: Yersinia bercovieri ATCC 43970
HLA-A*03:01 [15] = test: as above; conditions: source organism: Yersinia bercovieri ATCC 43970
HLA-B*15:01 [16] = test: as above; conditions: source organism: Yersinia bercovieri ATCC 43970
[17] = source organism: Mammarenavirus machupoense
[18] = source organism: Salmonella enterica
[19] = source organism: Zaire ebolavirus
[20] = source organism: Dengue virus 1 Brazil/97-11/1997
[21] = source organism: Pseudomonas aeruginosa
[22] = source organism: Mammarenavirus lassaense
[23] = source organism: Dengue virus 3 Martinique/1243/1999
[24] = source organism: Dengue virus 2 Jamaica/1409/1983

## EEPAALLPLS
HLA-B*40:02; [17]
  Kd: 0.859 µM
HLA-B*44:03; [17]
  Kd: ≥ 20 µM
HLA-B*18:01; [17]
  Kd: 11.5 µM
HLA-B*40:01 [1]; [17]
  Kd: 12 µM
HLA-B*45:01; [17]
  Kd: 0.211 µM
HLA-B*44:02 [2]; [17]
  Kd: 3.41 µM

## EEQTDPKTL
HLA-B*07:02 [3]; [18]
  Kd: ≥ 20 µM
HLA-B*08:01; [18]
  Kd: ≥ 20 µM
HLA-A*02:01 [4]; [18]
  Kd: ≥ 20 µM
HLA-B*27:05; [18]
  Kd: ≥ 20 µM
HLA-A*01:01; [18]
  Kd: ≥ 20 µM
HLA-B*58:01; [18]
  Kd: ≥ 20 µM
HLA-A*69:01; [18]
  Kd: ≥ 20 µM
HLA-A*26:01 [5]; [18]
  Kd: ≥ 20 µM
HLA-A*31:01; [18]
  Kd: ≥ 20 µM
HLA-B*40:01 [6]; [18]
  Kd: 7.33 µM
HLA-A*03:01 [7]; [18]
  Kd: ≥ 20 µM
HLA-B*15:01 [8]; [18]
  Kd: ≥ 20 µM
HLA-A*11:01 [9]; [18]
  Kd: ≥ 20 µM
HLA-B*44:02 [10]
  Kd: ≥ 20 µM

## EESASSGKL
HLA-A*11:01 [11]; [19]
  IC50: ≥ 214 µM

## FPLCLSTTSQ
HLA-B*07:02 [12]; [20]
  Kd: 0.179 µM
HLA-B*35:01; [20]
  Kd: 0.514 µM
HLA-B*51:01; [20]
  Kd: ≥ 39.6 µM
HLA-B*53:01
  Kd: 0.0363 µM

## FSRENSLSGV
HLA-B*51:01; [20]
  Kd: 7.58 µM

## GEDDDMLPW
HLA-B*07:02 [3]; [21]
  Kd: ≥ 20 µM
HLA-B*08:01; [21]
  Kd: ≥ 20 µM
HLA-A*02:01 [4]; [21]
  Kd: ≥ 20 µM
HLA-B*27:05; [21]
  Kd: ≥ 20 µM
HLA-A*01:01; [21]
  Kd: ≥ 20 µM
HLA-B*58:01; [21]
  Kd: ≥ 20 µM
HLA-A*69:01; [21]
  Kd: ≥ 20 µM
HLA-A*26:01 [5]; [21]
  Kd: ≥ 20 µM
HLA-A*31:01; [21]
  Kd: ≥ 20 µM
HLA-B*40:01 [6]; [21]
  Kd: 2.59 µM
HLA-A*03:01 [7]; [21]
  Kd: ≥ 20 µM
HLA-B*15:01 [8]; [21]
  Kd: ≥ 20 µM
HLA-A*11:01 [9]; [21]
  Kd: ≥ 20 µM

## HDLMKQKCL
HLA-B*40:02; [22]
  Kd: 1.57 µM
HLA-B*44:03; [22]
  Kd: ≥ 78.1 µM
HLA-B*18:01; [22]
  Kd: ≥ 77.5 µM
HLA-B*40:01 [1]; [22]
  Kd: ≥ 40 µM
HLA-B*45:01; [22]
  Kd: 19.1 µM
HLA-B*44:02 [2]; [22]
  Kd: ≥ 77.9 µM

## IALDLVTEI
HLA-B*51:01; [23]
  Kd: 0.00152 µM

## KACLEKVQR
HLA-A*11:01 [11]; [19]
  IC50: ≥ 188 µM

## KDESIFINK
HLA-A*11:01 [11]; source organism: Vaccinia virus Copenhagen
  IC50: ≥ 82.6 µM

## KPEGKVIDL
HLA-B*07:02 [12]; [20]
  Kd: 0.496 µM

## LALGCYSQV
HLA-B*51:01; [20]
  Kd: 0.567 µM

## LILCVTQVLM
HLA-B*35:01; [24]
  Kd: 14.2 µM

## LPDTIETLML
HLA-B*35:01; [20]
  Kd: 0.578 µM
HLA-B*51:01; [20]
  Kd: 19.3 µM
HLA-B*53:01
  Kd: 0.297 µM

## LPVWLAYKVA
HLA-B*35:01; source organism: Dengue virus 2 Peru/IQT2913/1996
  Kd: 5.09 µM

## MGLDKGWPI
HLA-B*51:01; [20]
  Kd: ≥ 44.7 µM

## MGVTGILQL
HLA-A*24:02
  IC50: ≥ 85.2 µM
HLA-A*02:01 [13]
  IC50: 52.9 µM
HLA-A*11:01 [11]; [19]
  IC50: ≥ 73.8 µM

## RVLSLIGLK
HLA-A*11:01 [11]; source organism: West Nile virus
  IC50: 0.334 µM

## SEYKAAGYL
HLA-B*39:01
  Kd: ≥ 20 µM
HLA-B*07:02 [3]; [21]
  Kd: ≥ 20 µM
HLA-B*08:01; [21]
  Kd: ≥ 20 µM
HLA-A*02:01 [4]; [21]
  Kd: ≥ 20 µM
HLA-B*27:05; [21]
  Kd: ≥ 20 µM
HLA-A*01:01; [21]
  Kd: ≥ 20 µM
HLA-B*58:01; [21]
  Kd: ≥ 20 µM
HLA-A*69:01; [21]
  Kd: ≥ 20 µM
HLA-A*26:01 [5]; [21]
  Kd: ≥ 20 µM
HLA-A*31:01; [21]
  Kd: ≥ 20 µM
HLA-B*40:01 [6]; [21]
  Kd: 0.0196 µM
HLA-A*03:01 [7]; [21]
  Kd: ≥ 20 µM
HLA-B*15:01 [8]; [21]
  Kd: ≥ 20 µM
HLA-A*11:01 [9]; [21]
  Kd: ≥ 20 µM

## SPSKLASAIQ
HLA-B*07:02 [12]; [24]
  Kd: 0.436 µM

## SPSPTVEESR
HLA-B*07:02 [12]; [23]
  Kd: 3.71 µM

## TPRSMPGTRR
HLA-B*07:02 [12]; [23]
  Kd: 1.14 µM

## TPSMTMRCVG
HLA-B*07:02 [12]; [23]
  Kd: 0.048 µM

## TPTWNRKELL
HLA-B*07:02 [12]; [23]
  Kd: 0.0182 µM

## YIYDTAFKY
HLA-A*26:01 [14]
  Kd: 0.265 µM
HLA-A*03:01 [15]
  Kd: 3.83 µM
HLA-B*15:01 [16]
  Kd: 0.173 µM
